One experiment addresses 人源GM-CSF蛋白 (human, UniProt P04141 18-144). Put plainly: indirect ELISA, cell supernatant on coated cytokine.
The target of a further experiment is 人源IL-21蛋白 (human, UniProt Q9HBE4 32-162, limits assumed). Described as above.
In another experiment the target is 人源IL-6蛋白 (human, UniProt P05231 30-212). The description is as above.
The target in the next experiment is 人源IL-15蛋白 (human, UniProt P40933 49-162). The experiment is described as above.
The next experiment deals with T1, 人源IL-4蛋白 (human, UniProt P05112 25-153).
T1 sequence (looked up): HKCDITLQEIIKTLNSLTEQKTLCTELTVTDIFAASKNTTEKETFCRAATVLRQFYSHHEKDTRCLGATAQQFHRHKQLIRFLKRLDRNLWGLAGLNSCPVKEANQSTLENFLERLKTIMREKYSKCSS
The description is as above.

Another experiment deals with 人源IL-2蛋白 (human, UniProt P60568 21-153). The experiment is described as above.
人源IL-2蛋白, sequence (P60568 21-153 limits assumed): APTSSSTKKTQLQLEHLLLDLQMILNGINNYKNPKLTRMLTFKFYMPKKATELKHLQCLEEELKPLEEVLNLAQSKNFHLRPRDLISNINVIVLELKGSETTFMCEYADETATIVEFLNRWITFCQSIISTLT
A further experiment deals with 人源IL-10蛋白 (human, UniProt P22301 19-178). The description is as above.
人源IL-10蛋白, sequence (P22301 19-178 limits assumed): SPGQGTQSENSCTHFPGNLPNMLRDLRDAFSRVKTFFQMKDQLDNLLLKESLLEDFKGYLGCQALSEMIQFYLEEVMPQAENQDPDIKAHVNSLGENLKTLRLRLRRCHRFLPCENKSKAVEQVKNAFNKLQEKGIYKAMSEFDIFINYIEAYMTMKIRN
In the next experiment the target is 人源TNF-alpha蛋白 (human, UniProt P01375 77-233). The experiment is described as above.
人源TNF-alpha蛋白, sequence (P01375 77-233 limits assumed): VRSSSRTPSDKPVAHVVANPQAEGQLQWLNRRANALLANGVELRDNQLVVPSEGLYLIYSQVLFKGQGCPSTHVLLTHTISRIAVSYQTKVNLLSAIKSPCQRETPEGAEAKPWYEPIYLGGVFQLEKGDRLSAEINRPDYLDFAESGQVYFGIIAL
A further experiment concerns the target T2, 人IL-7蛋白 (human, UniProt P13232 26-177).
T2 construct: also called 人源IL-7
T2 sequence (looked up): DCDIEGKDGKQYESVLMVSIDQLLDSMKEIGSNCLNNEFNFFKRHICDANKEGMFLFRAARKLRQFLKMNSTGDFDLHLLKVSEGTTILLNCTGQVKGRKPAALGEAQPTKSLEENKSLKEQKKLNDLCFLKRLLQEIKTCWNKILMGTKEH
Kind of experiment: indirect ELISA, cell supernatant on coated human IL-7 (2 μg/mL). On the technique in general: ELISA stands for enzyme-linked immunosorbent assay.

This note sets out measurements from patent publication CN117050178A (BEIJING BIOSYSTEMS BIOLOGICAL TECH CO LTD, dated 2023).

人源IL-15蛋白, sequence (P40933 49-162 limits assumed): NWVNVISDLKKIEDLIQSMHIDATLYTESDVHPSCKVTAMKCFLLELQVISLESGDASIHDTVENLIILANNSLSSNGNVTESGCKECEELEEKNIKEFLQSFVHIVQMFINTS
人源IL-21蛋白, sequence (Q9HBE4 32-162 limits assumed): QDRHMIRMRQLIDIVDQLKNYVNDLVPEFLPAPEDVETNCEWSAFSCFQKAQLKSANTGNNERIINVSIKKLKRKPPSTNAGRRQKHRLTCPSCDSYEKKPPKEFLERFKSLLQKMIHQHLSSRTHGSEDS
人源GM-CSF蛋白, sequence (P04141 18-144 limits assumed): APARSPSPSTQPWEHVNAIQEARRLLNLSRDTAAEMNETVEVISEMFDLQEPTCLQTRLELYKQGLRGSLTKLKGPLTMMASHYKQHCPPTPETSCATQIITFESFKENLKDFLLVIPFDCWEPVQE

B1: 抗体8E8B10 (antibody, V domains shown)
VH: QVQLQQPGAELLRPGASVKLSCKTSGFTFTRYWINWVKQRPGQGLEWIGMIDPFDSETHYNQVFKDKATLTVDKSSSTAYMYMSSLTSEDSAVYYCARYFVYFDTVDFWGQGTSLTVSS
VL: DVVMTQTPLSLPVSLGGQASISCRSGQSLVHSDGNTYLHWYLQRPGQSPKLLIYKVSNRFSGVPDRFSGSGSGTNFTLKISRVEAEDLGVYFCSQNTHVPYTFGGGTKLEMK
notes: Mouse hybridoma monoclonal antibody; also called Clone 8E8B10; 克隆号8E8B10
Take B1: the binding result with 人源GM-CSF蛋白, with 人源IL-21蛋白, with 人源IL-6蛋白, with 人源IL-15蛋白, with 人源IL-4蛋白 and in the experiment with 人源IL-2蛋白 was “no binding (tested: antigen coated at 2 μg/mL)” throughout. The binding result is listed as “no binding (tested: antigen coated at 2 μg/mL)” in the experiment with 人源IL-10蛋白, “no binding (tested: antigen coated at 2 μg/mL)” in the experiment with 人源TNF-alpha蛋白 and “binds” with 人IL-7蛋白.
